Experimental data: patent US20220064254A1 (Janssen / Centocor, published 2022)

Columns and labels:
[1] = target: T1, biotinylated recombinant hK2 protein (human, UniProt P20151 25-261, biotin label (EZ-Link Sulfo-NHS-LC-Biotin)); assay: flow cytometry; primary human T cells lentivirally transduced with the CAR (MOI 3), day 14, stained with biotinylated hK2 (1 ug/ml) then streptavidin-PE; UTD control gate 0.065
T1 construct: In-house biotin-labelled recombinant hK2 used as the flow cytometry reagent; also called biotinylated hK2; Biotin-Hk2 protein

[2] = target: hK2 on target cells (VCaP, LNCaP/hK2, LNCaP, C4-2B) (human, UniProt P20151 19-261); assay: cell-based or functional assay
[3] = target: T1, biotinylated recombinant hK2 protein; assay: flow cytometry; CAR-transduced JNL cells stained with biotinylated hK2 and streptavidin-PE

T1 sequence (P20151 25-261): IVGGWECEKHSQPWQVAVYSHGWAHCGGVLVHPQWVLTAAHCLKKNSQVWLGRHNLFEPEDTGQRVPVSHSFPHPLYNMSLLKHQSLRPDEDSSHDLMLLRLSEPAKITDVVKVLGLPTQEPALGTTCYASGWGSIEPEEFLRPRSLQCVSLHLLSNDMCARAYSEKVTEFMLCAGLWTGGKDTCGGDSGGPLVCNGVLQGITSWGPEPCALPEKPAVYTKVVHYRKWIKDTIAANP
Chain of hK2 on target cells (VCaP, LNCaP/hK2, LNCaP, C4-2B) (P20151 19-261): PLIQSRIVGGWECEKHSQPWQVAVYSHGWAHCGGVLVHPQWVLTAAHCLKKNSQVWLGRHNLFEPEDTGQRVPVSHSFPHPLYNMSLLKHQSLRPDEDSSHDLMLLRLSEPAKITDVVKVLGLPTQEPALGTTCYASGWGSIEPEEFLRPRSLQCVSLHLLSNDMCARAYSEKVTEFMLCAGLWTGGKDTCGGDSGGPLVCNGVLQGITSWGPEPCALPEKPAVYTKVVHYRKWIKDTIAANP

percent of CD3+ T cells in the PE-positive gate (hK2 CAR) [1]: 59.9%
% of JNL cells stained with biotinylated hK2 (reported as CAR expression) [3]: 50.8%
B1: CAR20 (KL2B359_LH) (other)
chain: EIVLTQSPATLSLSPGERATLSCRASESVEYFGTSLMHWYQQKPGQPPRLLIYAASNVESGIPARFSGSGSGTDFTLTISSVEPEDFAVYFCQQTRKVPYTFGGGTKVEIKGGSEGKSSGSGSESKSTGGSQVQLQESGPGLVKPSQTLSLTCTVSGNSITSDYAWNWIRQFPGKRLEWIGYISYSGSTTYNPSLKSRVTISRDTSKNQFSLKLSSVTAADTAVYYCATGYYYGSGFWGQGTLVTVSSTSTPAPRPPTPAPTIASQPLSLRPEACRPAAGGAVHTRGLDFACDIYIWAPLAGTCGVLLLSLVITLYCKRGRKKLLYIFKQPFMRPVQTTQEEDGCSCRFPEEEEGGCELRVKFSRSADAPAYKQGQNQLYNELNLGRREEYDVLDKRRGRDPEMGGKPRRKNPQEGLYNELQKDKMAEAYSEIGMKGERRRGKGHDGLYQGLSTATKDTYDALHMQALPPR
notes: also called KL2B359 LH CAR; rehumanized 11B6 LH CAR
tumor cell growth inhibition (TGI, %) of hK2 positive VCaP cells, real-time IncuCyte killing assay, 96 hours [2]: ~100%
